{"source": "patent US9974753B2", "about": "“Nanoparticles comprising a vegetable hydrophobic protein and a water miscible non-volatile organic solvent and uses thereof” (BIONANOPLUS, S.L., priority 2012, dated 2018)", "assay": "Solubility of zein in PG binary solvent mixtures (turbidity change at 405 nm)", "assay_type": "physicochemical", "procedure": "The solubility of zein in different binary mixtures of PG and other water miscible non-volatile organic solvents that are miscible with PG was studied. This example studies the incorporation of different surfactants or solvents to enhance the solubility of a molecule in PG, if necessary. For this purpose, turbidity change of PG zein solution was monitored at 405 nm after the addition of different amounts of water, glycerol, Labrasol®, Tween® 80 or Lutrol® L 44 to 5 mL of zein solution in PG (2.5% w/v), at room temperature. The end point zone, at which zein was precipitated from PG solution, was calculated monitoring the turbidity change at 405 nm, that is, the absorbance increase (in percentage) after each solvent/surfactant addition with respect to the initial absorbance value in a spectrophotometer (Labsystems iEMS Reader MF, Finland)."}
{"substance": "zein", "values": [{"measurement": "End point range of zein precipitation from PG solution", "setting": "Tween® 80 added to zein 2.5% w/v in PG", "value": "65-75 % (v/v)"}, {"measurement": "End point range of zein precipitation from PG solution", "setting": "glycerol added to zein 2.5% w/v in PG", "value": "45-55 % v/v"}]}
